# In US20230183713A1, “SITE-SPECIFIC RECOMBINASES FOR EFFICIENT AND SPECIFIC GENOME EDITING” (TECHNISCHE UNIVERSITÄt DRESDEN, published 2023):
# Changes are numbered by the printed parent chain. Names may count otherwise.
# B1: Cre recombinase monomer with K201N mutation (protein)
# chain: MSNLLTVHQNLPALPVDATSDEVRKNLMDMFRDRQAFSEHTWKMLLSVCRSWAAWCKLNNRKWFPAEPEDVRDYLLYLQARGLAVKTIQQHLGQLNMLHRRSGLPRPSDSNAVSLVMRRIRKENVDAGERAKQALAFERTDFDQVRSLMENSDRCQDIRNLAFLGIAYNTLLRIAEIARIRVKDISRTDGGRMLIHIGRTNTLVSTAGVEKALSLGVTKLVERWISVSGVADDPNNYLFCRVRKNGVAAPSATSQLSTRALEGIFEATHRLIYGAKDDSGQRYLAWSGHSARVGAARDMARAGVSIPEIMQAGGWTNVNIVMNYIRNLDSETGAMVRLLEDGD
# B2: Cre recombinase monomer with R292E mutation (protein)
# chain: B1 chain with N201K, R292E
# B3: Cre recombinase monomer with R173M mutation (protein)
# chain: B1 chain with R173M, N201K
# B4: Cre recombinase monomer with W315E mutation (protein)
# chain: B1 chain with N201K, W315E
# B5: Cre recombinase monomer with H289W mutation (protein)
# chain: B1 chain with N201K, H289W
# B6: Cre recombinase monomer with W315C mutation (protein)
# chain: B1 chain with N201K, W315C
# B7: Cre recombinase monomer with H289E mutation (protein)
# chain: B1 chain with N201K, H289E
# B8: Cre recombinase monomer with R173W mutation (protein)
# chain: B1 chain with R173W, N201K
# Experiments:
# [1] = target: T1, Cre recombinase monomer with Y324A mutation
# T1 chain: B1 chain with N201K, Y324A
# [2] = target: T2, Cre recombinase monomer with Q311R mutation
# T2 chain: B1 chain with N201K, Q311R
# [3] = target: T3, Cre recombinase monomer with Y324I mutation
# T3 chain: B1 chain with N201K, Y324I
# [4] = target: T4, Cre recombinase monomer with E176H mutation
# T4 chain: B1 chain with E176H, N201K
# [5] = target: T5, Cre recombinase monomer with E176Y mutation
# T5 chain: B1 chain with E176Y, N201K
# [6] = target: T6, Cre recombinase monomer with E176V mutation
# T6 chain: B1 chain with E176V, N201K
# [7] = target: T7, Cre recombinase monomer with E176M mutation
# T7 chain: B1 chain with E176M, N201K
# [8] = target: T8, Cre recombinase monomer with Y324S mutation
# T8 chain: B1 chain with N201K, Y324S
# [9] = target: T9, Cre recombinase monomer with W315C mutation
# T9 chain: B1 chain with N201K, W315C
# [10] = target: T10, Cre recombinase monomer with Y324T mutation
# T10 chain: B1 chain with N201K, Y324T
# [11] = target: T11, Cre recombinase monomer with Y324R mutation
# T11 chain: B1 chain with N201K, Y324R
# [12] = target: T12, Cre recombinase monomer with Y324N mutation
# T12 chain: B1 chain with N201K, Y324N
# [13] = target: T13, Cre recombinase monomer with W315L mutation
# T13 chain: B1 chain with N201K, W315L
protein,measurement,setting,value
B1,Median dimer activity (recombination on loxP),[1],26%
same,Median dimer activity (recombination on loxP),[2],95%
B2,Median dimer activity (recombination on loxP),[3],70%
same,Median dimer activity (recombination on loxP),[2],50%
B3,Median dimer activity (recombination on loxP),[4],75%
same,Median dimer activity (recombination on loxP),[5],27%
same,Median dimer activity (recombination on loxP),[6],75%
same,Median dimer activity (recombination on loxP),[7],39%
same,Median dimer activity (recombination on loxP),[2],96%
B4,Median dimer activity (recombination on loxP),[8],35%
B5,Median dimer activity (recombination on loxP),[2],95%
same,Median dimer activity (recombination on loxP),[9],87%
B6,Median dimer activity (recombination on loxP),[10],36%
same,Median dimer activity (recombination on loxP),[11],31%
same,Median dimer activity (recombination on loxP),[12],38%
B7,Median dimer activity (recombination on loxP),[13],33%
same,Median dimer activity (recombination on loxP),[2],94%
B8,Median dimer activity (recombination on loxP),[4],57%
same,Median dimer activity (recombination on loxP),[5],30%
same,Median dimer activity (recombination on loxP),[2],95%
